The record followed here is patent US20250257142A1 (INVETX, published 2025).

The target of assay [1] is T1, extracellular domain of canine IL-31RA fused to murine IgG2A Fc (canine).
T1 construct: also called Canine IL-31RA-murine IgG2A Fc; Canine IL-31RA-mFc
T1 chain: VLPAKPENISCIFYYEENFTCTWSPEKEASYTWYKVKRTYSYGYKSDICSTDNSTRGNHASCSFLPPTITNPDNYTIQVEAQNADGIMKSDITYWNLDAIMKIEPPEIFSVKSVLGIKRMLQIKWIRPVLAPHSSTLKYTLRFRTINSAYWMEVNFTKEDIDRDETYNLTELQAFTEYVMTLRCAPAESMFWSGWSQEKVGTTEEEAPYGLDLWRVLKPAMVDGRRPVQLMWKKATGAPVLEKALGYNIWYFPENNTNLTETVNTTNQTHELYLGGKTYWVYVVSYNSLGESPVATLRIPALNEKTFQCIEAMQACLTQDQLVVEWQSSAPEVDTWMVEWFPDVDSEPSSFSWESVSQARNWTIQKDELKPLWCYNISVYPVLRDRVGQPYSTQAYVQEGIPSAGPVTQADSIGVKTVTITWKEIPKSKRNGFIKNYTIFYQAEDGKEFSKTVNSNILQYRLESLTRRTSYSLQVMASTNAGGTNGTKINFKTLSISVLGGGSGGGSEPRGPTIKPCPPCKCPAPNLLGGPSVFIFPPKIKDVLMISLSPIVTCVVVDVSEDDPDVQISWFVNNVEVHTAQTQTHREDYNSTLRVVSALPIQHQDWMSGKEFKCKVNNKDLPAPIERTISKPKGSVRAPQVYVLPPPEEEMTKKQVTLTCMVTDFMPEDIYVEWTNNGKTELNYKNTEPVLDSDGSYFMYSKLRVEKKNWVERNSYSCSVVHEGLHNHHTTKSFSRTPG
Briefly: SPR Biacore T200, antibody captured on anti-human IgG chip, canine IL-31RA-mFc as analyte, 1:1 model. On the procedure:
Canine IL-31RA-murine IgG2A Fc was generated by transiently transfecting pcDNA3.4 containing Sequence 3 into GenScript HD (High Density) CHO-S cells and purified with MabSelect SuRe LX chromatography. Further purification of the recombinant protein was completed using gel filtration with TSKgel G3000SWxi chromatography. […] Antibodies were flowed over the anti-human IgG sensor chip at a concentration of 1 μg/ml in 1×HBS-EP+ (Cytiva, BR100826) for 60 seconds at a flow rate of 10 μL/min. Canine IL-31RA-mFc (100 nM, 50 nM, 25 nM, 12.5 nM, 6.25 nM, […]) solutions in 1×HBS-EP+ was flown over the sensor chips for a contact time of 120 s and a dissociation time of 600 s at a flow rate of 30 μL/min. Double reference-subtracted sensorgrams were fitted to a 1:1 binding model using Biacore T200 Evaluation software and the kinetics of binding are shown below in Table 4.

For assay [2], the target named is canine IL-31 receptor alpha (IL-31RA) on canine DH-82 cells (canine). Briefly: cell-based or functional assay.
The target in assay [3] is T1, extracellular domain of canine IL-31RA …. Briefly: SPR Biacore T200, antibody captured on anti-dog H+L chip, canine IL-31RA-mFc as analyte; relative affinity scale: *** 3 pM-100 pM, ** 101 pM-1 nM, * 1.1 nM-20 nM (avidity). On the procedure:
(§1) Seven days following the transient transfection, the IgG in the conditioned medium was purified using MabSelect SuRe chromatography. The antibodies were buffer-exchanged into PBS, pH 7.4. The relative affinity of the variants was determined by SPR on a Biacore T200. The antibody was captured using a CM5 Series S chip amine coupled with an anti-dog H+L antibody (Jackson Immunoresearch). Canine IL-31RA-mFc (100 nM, 50 nM, 25 nM, 12.5 nM, 6.25 nM, 3.625 nM) solutions in 1×HBS-EP+ was flown over the sensor chip for a contact time of 120 s and a dissociation time of 600 s at a flow rate of […]. Double reference-subtracted sensorgrams were fitted to a 1:1 binding model using Biacore T200 Evaluation software. The canine IL-31RA antigen was both a dimer and aggregated so there were avidity effects with the measured affinities. […] Following the initial results with the single variants, a heavy chain containing the W53F variant and the M118I variant was synthesized and subcloned into pcDNA 3.4 (SEQ ID NO:18). The same methods as described above for expression and purification of the variant along with measuring the relative affinity were used to determine the relative affinity of the W53F/M118I heavy chain variant combined with the S95A light chain and the N94Q light chain variants.
Background: Surface plasmon resonance follows binding to a sensor surface in real time, without labels.

In assay [4] the target is T2, canine IL-31RA (20-308)-AviTag-His Tag, monomeric (canine).
T2 construct: Signal peptide (first 19 residues) left out; also called monomeric IL-31RA
T2 chain: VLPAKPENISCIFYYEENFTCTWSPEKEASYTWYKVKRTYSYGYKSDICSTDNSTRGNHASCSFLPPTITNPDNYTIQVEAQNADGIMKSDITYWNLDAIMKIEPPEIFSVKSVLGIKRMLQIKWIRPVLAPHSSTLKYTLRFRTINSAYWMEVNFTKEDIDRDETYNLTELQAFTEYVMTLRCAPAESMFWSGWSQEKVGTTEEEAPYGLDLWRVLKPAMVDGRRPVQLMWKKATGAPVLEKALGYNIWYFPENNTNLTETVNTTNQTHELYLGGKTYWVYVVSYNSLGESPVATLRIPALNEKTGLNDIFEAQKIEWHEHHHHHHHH
Kind of assay: SPR Biacore T200, antibody captured on anti-dog H+L chip, monomeric canine IL-31RA (20-308) as analyte. On the procedure:
as §1, with “The” for “Seven days following the transient transfection, the IgG in the conditioned medium was purified using MabSelect SuRe chromatography. The antibodies were buffer-exchanged into PBS, pH 7.4. The relative affinity of the variants was determined by SPR on a Biacore T200. The”
To reduce the avidity effects from using the canine IL-31RA-mouse Fc construct in SPR experiments, a monomeric construct was generated which contains amino acids 20-308 of the canine IL-31IRA extracellular domain (SEQ ID NO:28). This construct has the AviTag sequence ([…] (SEQ ID NO:51)) followed by an 8×His(SEQ ID NO:52) tag to facilitate purification. GenScript HD (High Density) CHO-S cells were transiently transfected with pcDNA 3.4 containing Sequence 28 and purified with HisTrap FF chromatography. Further purification of the recombinant protein was completed using gel filtration with Cytiva HiLoad 26/600 Superdex chromatography to isolate the monomeric IL-31RA species. […] These clones were evaluated in an SPR experiment using the same conditions as described for the caninized clones except the analyte is canine IL-31RA (20-308).

Assay [5] has as its target T1, extracellular domain of canine IL-31RA …. Kind of assay: SPR Biacore T200, antibody captured on anti-dog H+L chip, canine IL-31RA-mFc as analyte; relative affinity scale: *** 3 pM-100 pM, ** 101 pM-1 nM, * 1.1 nM-20 nM (avidity). On the procedure: as §1, with “The different heavy and light chain combinations were co-transfected into ExpiCHO cells using the ExpiCHO transfection kit (ThermoFisher; Cat. #A29133). Seven” for “Seven”

B1: Clone 109 (human antibody 109, human IgG1) (antibody, V domains shown)
VH: EVQLVESGGGVVRPGGSLRLSCAASGFTFDDYGMSWVRQIPGRGLEWVSGINWAGGTIGYADSVKGRFTVSRDDANNSLYLQMNSLRAEDTALYLCARESPLRLGDLGGDYFYYYYYMDVWGKGTTVTVSS
VL: EIVLTQSPGTLSLSPGERATLSCRASQSVSSRYLVWYQQKPGQAPRLLIYGTSSRATGIPDRFSGSGSGTDFTLTISRLEPEDFAVYYCQQYDNSPRTFGQGTKVEIKR
A word on the Kd: it is the concentration at which binding is half-saturated. What is called koff is a measure of how fast the partners let go of each other. As a reminder, the kon is the second-order rate constant of association. Regarding B1, in assay [1], the Kd worked out at 0.506 nM, the koff came to 0.000108 s⁻¹ and the kon stood at 214000 M⁻¹ s⁻¹. Besides, in assay [2], the “IC50 (read off the curve)” value was ~4 nM.

B2: Clone 186 (human antibody 186, human IgG1) (antibody, V domains shown)
VH: EVQLLESGGGLIQPGGSLRLSCGASGFTFSSYAMSWVRQAPGKGLEWVSAISGSGNSTYYADSVKGRFTISRDNSKNTLYLQMNSLRAEDTAVYYCATQVVYYFKMDVWGKGTTVTVSS
VL: EIVMTQSPATLSVSPGERATLSCRASQSVSSNLAWYRQKPGQAPRLLIYGASTRATGIPARFSGSGSGTEFTLTISSLQSEDFAVYYCQQYYNWPPFTFGPGTKLDIKR
B2: in assay [1], the Kd is 1.81 nM, the koff was 0.000118 s⁻¹ and the kon stood at 65200 M⁻¹ s⁻¹. In assay [2], the “IC50 (read off the curve)” value is ~10 nM.

B3: 186-95_QLF (186-95 containing the N56Q, M106L, and W94F variants) (antibody, V domains shown)
VH: EVQLVESGGDLVKPGGSLRLSCVASGFTFSSYAMSWVRQAPGKGLQWVSAISGSGQSTYYADAVKGRFTISRDNAKNTLYLQMNSLRAEDTAVYYCATQVVYYFKLDVWGQGTLVTVSS
VL: EIVMTQSPGSLAGSAGESVSINCKSSQSVSSNLAWYQQKPGERPKLLIYGASTRASGVPARFSSSGSGTDFTLTINNLQAEDVGDYYCQQYYNFPPFTFGQGTKLEIKR
notes: Canine IgGB/kappa; signal peptides left out; also called N56Q-M106L / W94F
As for B3, in assay [3], the binding result is recorded as “binds”. In assay [4], this molecule came in with a Kd of 2.31 nM, a koff of 0.000161 s⁻¹ and a kon of 69800 M⁻¹ s⁻¹.

B4: 109-49_IA (109-49 containing the M118I and S95A variants) (antibody, V domains shown)
VH: EVQLVESGGDLVKPGGSLRLSCVASGFTFDDYGMSWVRQAPGKGLQWVSGINWAGGTIGYADAVKGRFTISRDNARNTVYLQMNSLRAEDTAVYYCARESPLRLGDLGGDYFYYYYYIDVWGQGTLVTVSS
VL: EVVMIQTPLSLSVSPGEPASISCRASQSVSSRYLVWYLQKPGQSPQLLIYGTSSRATGVSDRFSGSGSGTDFTLRISRVEAEDVGVYYCQQYDNAPRTFGQGTKVEIKR
notes: Canine IgGB/kappa; signal peptides left out; also called M118I / S95A
For B4, in assay [4], binding was characterised by a dissociation constant (Kd) of 1.31 nM, the koff was 7.09e-05 s⁻¹ and the kon turned out to be 54400 M⁻¹ s⁻¹. The “relative affinity (apparent KD by SPR)” value in assay [5] was 0.003 to 0.1 nM.
